The numbers were not newly measured in paper PMC2679154, which cites them from elsewhere.

The data set has as its target IGF-IR (Homo sapiens) (UniProt P08069).
UniProt P08069, sequence (P08069 31-736, chain 1 of 2): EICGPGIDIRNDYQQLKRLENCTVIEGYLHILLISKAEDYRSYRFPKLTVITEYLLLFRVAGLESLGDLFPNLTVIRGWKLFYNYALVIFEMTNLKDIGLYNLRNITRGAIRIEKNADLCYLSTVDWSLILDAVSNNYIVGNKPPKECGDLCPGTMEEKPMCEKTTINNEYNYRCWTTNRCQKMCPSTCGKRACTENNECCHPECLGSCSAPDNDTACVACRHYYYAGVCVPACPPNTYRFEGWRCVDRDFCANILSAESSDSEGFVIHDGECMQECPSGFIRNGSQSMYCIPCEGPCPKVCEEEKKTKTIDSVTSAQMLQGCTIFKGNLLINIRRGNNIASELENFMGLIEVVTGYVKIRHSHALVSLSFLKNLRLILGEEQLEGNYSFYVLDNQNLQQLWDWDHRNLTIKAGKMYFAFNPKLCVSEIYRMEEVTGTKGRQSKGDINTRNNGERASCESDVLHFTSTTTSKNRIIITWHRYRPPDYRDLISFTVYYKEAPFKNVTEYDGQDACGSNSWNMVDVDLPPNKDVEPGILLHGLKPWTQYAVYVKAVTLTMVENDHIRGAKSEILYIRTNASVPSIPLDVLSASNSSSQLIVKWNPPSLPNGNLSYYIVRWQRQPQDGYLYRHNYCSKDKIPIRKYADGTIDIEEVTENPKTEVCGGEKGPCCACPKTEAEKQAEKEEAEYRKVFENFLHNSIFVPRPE
UniProt P08069, sequence (P08069 741-935, chain 2 of 2): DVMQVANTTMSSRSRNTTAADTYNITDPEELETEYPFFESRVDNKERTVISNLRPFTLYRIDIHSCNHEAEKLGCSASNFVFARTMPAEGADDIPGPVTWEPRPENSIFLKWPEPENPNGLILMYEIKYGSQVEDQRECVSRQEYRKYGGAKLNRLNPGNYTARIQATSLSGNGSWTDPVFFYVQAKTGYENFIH

As for insulin (from UniProt P01308), the Kd (in general, the equilibrium constant for the complex coming apart) was 100 nM.
